Molecular target: SerRS AA (Homo sapiens, UniProt P49591 1-514, S101A;S241A)
Experiment: EMSA; not attenuated relative to WT; EMSA: 20 mM Tris-HCl pH 8.0, 60 mM KCl, 5 mM MgCl2, 0.1 mg/mL BSA, 10 ng/uL poly(dG-dC), 1 mM DTT, 30 min, room temperature; 0.08 pmol labeled DNA; 5% native PAGE
Conditions: protein: recombinant; tags: C-terminal His6; chain copies: 2; label: 5'-32P; annealed oligonucleotides

SerRS AA, sequence (P49591 whole entry S101A/S241A): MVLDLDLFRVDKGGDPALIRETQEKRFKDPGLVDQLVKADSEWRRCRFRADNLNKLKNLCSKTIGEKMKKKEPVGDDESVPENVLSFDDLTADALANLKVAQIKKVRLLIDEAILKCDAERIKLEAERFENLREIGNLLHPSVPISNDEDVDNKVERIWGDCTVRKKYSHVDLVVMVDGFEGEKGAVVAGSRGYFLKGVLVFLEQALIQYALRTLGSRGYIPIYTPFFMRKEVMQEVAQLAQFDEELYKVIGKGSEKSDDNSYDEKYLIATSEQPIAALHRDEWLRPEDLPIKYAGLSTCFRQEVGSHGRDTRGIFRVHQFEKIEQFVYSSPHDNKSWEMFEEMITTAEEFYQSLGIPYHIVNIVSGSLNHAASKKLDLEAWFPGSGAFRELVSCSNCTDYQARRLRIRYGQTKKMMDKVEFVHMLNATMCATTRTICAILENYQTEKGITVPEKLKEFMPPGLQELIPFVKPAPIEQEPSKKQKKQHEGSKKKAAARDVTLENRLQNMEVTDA

B1: VEGFA promoter SerRS binding site 27 bp (dsDNA)
DNA 1: GGCGGGGCGGAGCCATGCGCCCCCCCC
DNA 2: GGGGGGGGCGCATGGCTCCGCCCCGCC
binding result: binds

From PMC7755189, “Phosphorylation of seryl-tRNA synthetase by ATM/ATR is essential for hypoxia-induced angiogenesis”
